# B1: 9-M12-A (antibody, V domains shown)
# VH: EVQLVESGGDLVKPGGSLKLSCTASGFTFSSYGMSWVRQTPDKRLEWVTTISSGGGYTYVPDSVKGRFTISRDNAKNTLYLHMSSLKSEDTAMYFCARPLIPTMVEAFDYWGQGTSLTVSS
# VL: SIVMTQTPKFLPVSAGDRVTMTCKASQSVGNNVAWYQQKPGQSPKLLIYYASNRYTGVPDRFTGSGSGADFTFTISSVQVEDLAVYFCQQHYSSPFTFGTGTKLEIK
# B2: 3-K11-A (antibody, V domains shown)
# VH: EVQLQQSGPELVKPGASVKMSCKASGYTFTSYVMHWVKQKPGQGLEWIGYINPYNDGTEYNEKFKGKATLTSDKSSSTAYMELSSLTSEDSAVYHCAREAYRYFDVWGTGTTVTVSS
# VL: DIQMTQSPASLSVSVGETVTITCRASENIYSNLAWYQQKQGKYPQLLVYGATNLADGVPSRFSGSGSGTQYFLKINSLQSEDFGSYYCQHFWGIPWTFGGGTKLEIK
# B3: 2-B16-B (antibody, V domains shown)
# VH: EVQLQQSGAELVRPGSSVKMSCKTSGYTFTSYGINWVKQRPGQGLEWIGYIYIGNGYTAYNEKFKGKATLTSDTSSSTAYMQLSSLTSEDSAIYFCARDGTRDAMDYWGQGTSVTVSS
# VL: DIQMTQSPASLSASVGETVTITCRASENIYSNLAWYQQKQGKSPQLLVYAATNLADGVPSRFSGSGSGTQFSLKINSLQPEDFGSYYCQHFYSSPWTFGGGTKLEIK
# B4: 4-A22-A (antibody, V domains shown)
# VH: EVQLQQSGPELVKPGASVKMSCKASGYTFTSYVMHWVKQKPGQGLEWIGYINPYNDGTEYNEKFKGKATLTSDKSSSTAYMELSSLTSEDSAVYYCAREAYRYFDVWGTGTTVTVSS
# VL: DIQMTQSPASLSVSVGETVTITCRASENIYSNLAWYQQKQGKSPQLLVYAATNLAEGVPSRFSGSGSGTQYSLKINSLQSEDFGSYYCQHFWGTPWTFGGGTKLEIK
# B5: 2-B20-A (antibody, V domains shown)
# VH: QIQLVQSGPELKKPGETVKISCKASGYTFTTYGMSWVKQAPGKGLKWMGWINTFSGLPTYADDFNGRFAFSLETSASTAYLQINNLKDEDTATYFCARVKVHDYDGDFYGMDYWGQGTSVTVSS
# VL: DVVLTQTPLSLPVNIGDQASISCKSTKSLLNSDGFTYLDWYLQKPGQSPQLLIYLVSNRFSGVPDRFSGSGSGTDFTLKISRVEAEDLGVYYCFQSNYLPLTFGAGTKLELK
# B6: 1-L10-A (antibody, V domains shown)
# VH: EVKLEESGGGLVQPGGSMKLSCVASGFTFNNYWMNWVRQSPEKGLEWVAQMRLKSDNYATHYAESVKGRFTISRDDSKSSVYLQMNNLRAEDTGIYYCIEGYWTYWGQGTLVTVSA
# VL: QIVLTQSPAIMSASLGERVTMTCTASSSVSSSYLHWYQQKPGSSPKLWIYSTSNLASGVPARFSGNGSGTSYSLTISSMEAEDAATYYCLQYHRSPPYTFGGGTKLEIK
# B7: 6-C19-A-WT (antibody, V domains shown)
# VH: EVQLQQSGPELVKPGASVKMSCKASGYTFTDYNIHWVKQSHGKSLEWIGYINPNNGGTDYNQKFQGKATLTVDKSSSTAYMELRSLTSEDSAVYYCARGGFYGNYGSYYGMDFWGQGTSVTVSS
# VL: DIQMTQSPASLSASVGETVTITCRTSENIYSHLAWYQQTQGKSPHLLVYNAKTLAEGVPSRFSGSGSGTQFSLKINSLQPEDFGSYFCQHHYGIPPEFGGGTKLEIK
# B8: 6-O12-A (antibody, V domains shown)
# VH: QVQLQQPGTELVKPGASVKLSCKASGYTFTSYWMHWVKQRPGQGLEWIGNINPSNGGTNYNEKFRSKATLTVDKSSSTAYMQLSSLTSEDSAVYYCARLGWFLPLGSWGQGTTLTVSS
# VL: QIVLTQSPAIMSASLGEVITLTCSASSSVSYMHWYQQKSGTSPKLLIYSTSNLASGVPSRFSGSGSGTFYSLTISSVEAEDAADYYCHQWSGYMYTFGGGTKLEIK
# B9: 6-L8-A (antibody, V domains shown)
# VH: EVQLQQSVAELVRPGASVKLSCTPSGFNIKNTYMHWMKQRPEQGLEWIGRINPANDDTKYAPKFQDKATITADTSSNTAYLQLSSLTSEDTAIYYCVYDVRWYFDVWGTGTTVTVSS
# VL: DVVMTQTPLSLPVSLGDQASISCRSSQGLVHSNGNTYLHWYLQKPGQSPKLLIYKVSNRFSGVPDRFSGSGSGTDFTLKISRVEAEDLGVYFCSQSTHVPPTFGAGTKLELK
# B10: 2-O15-A (antibody, V domains shown)
# VH: QVQLQQSGAELVRPGASVKLSCKASGYTFTDCEMHWVKQTPVHGLEWIGVIDPETGDTAYNQKFKGKATLTADKSSSTAYMELRSLTSEDSAVYYCTRRRDYGNPYWYFDVWGAGTTVTVSS
# VL: EIVLTQSPALMAASPGEKVTITCSVSSSISSSNLHWYQQKSGTSPKPWIYGTSNLASGVPVRFSGSGSGTSYSLTISSMEAEDAATYYCQQWTSYPYTFGSGTKLEIK
# B11: 9-G24-A (antibody, V domains shown)
# VH: QVQLQQSGAELVRPGASVKLSCKASGYTFTDYEMHWVKQTPVHGLEWIGVIDPETGDTAYNQKFKDKATLTADKSSSTAYMELRSLTSEDSAVYYCARRRDYGNPYWYFDVWGAGTAVTVSS
# VL: EIVLTQSPALMAASPGEKVTITCSASSSISSSNLHWYQQKSGTSPKPWIYGTSNLASGVPVRFSGSGSGTSYSLTISSMEAEDAATYVCQQWSNYPYTFGSGTKLEIK
# B12: 4-L4-A (antibody, V domains shown)
# VH: QAYLQQSGAELVRPGASVKMSCKASGYTFTSYTVHWVKQTPRQGLEWIGGIYPGNVDTSYNQNFKGKATLTVDKSSSTAYMQLSSLTSEDSAVYFCARDGYYAMDYWGQGTSVTVSS
# VL: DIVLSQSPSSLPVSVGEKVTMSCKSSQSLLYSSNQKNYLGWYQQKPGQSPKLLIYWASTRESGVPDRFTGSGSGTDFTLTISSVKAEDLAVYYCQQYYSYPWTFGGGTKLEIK
# B13: 6-N1-A (antibody, V domains shown)
# VH: EVQLQQSGPELVKPGASVKISCKASGYTFTDYYMNWVQQSHGKSLEWIGDINPNNGGIRYNQNFKGKATLTVEKSSSTAYMELRSLTSEDSAVYYCARRQVFYDGYYDYAMDYWGQGTSVTVSS
# VL: DIVLTQSPASLAVSLGQRATISCRASQSVSTSSYSYMHWYQQKPGQPPKLLIKYASNLESGVPARFSGSGSGTDFTLNIHPVEEEDTATYFCQHNWEIPPTFGGGTKLEIK
# B14: 10-B11-A (antibody, V domains shown)
# VH: QVQLQQPGAELVKPGASVKVSCKASGYTFTSYWMHWVKQRPGQGLEWIGRIHPSDSDTNYYQKFKGKATLSVDKSSSTAYMQLSSLTSEDSAVYYCAIPLYSYDNSGGYYPMDYWGQGTSVTVSS
# VL: DIVMTQSQKFMSTSVGDRVTITCKASQNVRTAVAWYQQKPGQSPKKLIYLASNRHTGVPDRFTGSGSGTDFTLAISNVQSEDLADYFCLQHWNYPFTFGSGTRLEIK
# B15: 10-J24-A (antibody, V domains shown)
# VH: EVQLVESGGGLVKPGGSLKLSCAASGFTFSSYAMSWVRQNPAKRLEWVATISGGGGFTYYPDSVKGRFTISRDNAKNTLYLQMNSLRSEDTAMYYCARDEDGKHDYFDYWGQGTTLTVSS
# VL: DIVMTQSHKFMSTSVGDRVSITCKASQDVGTAVAWYQQKPGQSPKLLIYWASTRHTGVPDRFTGSGSGTDFTLTISNVQSEDLADYFCQQYASYPLTFGGGTKLVIK
# B16: 4-C22-A (antibody, V domains shown)
# VH: EVQLVESGGDLVKPGGSLKLSCAASGFTFSSFGMSWVRQTPDKRLEWVATISSGGGFTYYPDSVEGRFTISRDNAKNTLYLQMSSLKSEDTAMYYCARRLYDYDWFAYWGQGTLVTVSA
# VL: DIVMTQSHKIMSTSVGDRVSITCKASQDVVTAVAWYQKKPGQSPKLLIHWASTRHTGVPDRFTGSGSGTDFTLTISNVQSEDLADYFCQQYSSYPLTFGAGTKLELK
# B17: 6-C19-A (antibody, V domains shown)
# VH: QIQLVQSGPELKKPGETVKISCKASGNTFTTAGMQWVQKMPGKGFKWIGWINTHSGEPKYAEDFKGRFAFSLETSASTAYLQISNLKNEDTATYFCARYGDYYYFDCWGQGTTLTVSS
# VL: DIQMTQSPASLSASVGETVTITCRASGNIHNYLAWYQQKQGKSPQLLVYNAKTLADGVPSRFSGSGSGTQYSLKINSLQPEDFGSFYCQHFWTTPWSFGGGTKLEIK
# B18: 4-K16-A (antibody, V domains shown)
# VH: QIQLVQSGPELKKPGETVKISCKASGYTFTTYGMSWVKQAPGKGLKWMGWMSTYSGVPTYADDFKGRFAFSLETSASTAYLQINNLKNEDTATYFCASGDVGYWGQGTTLTVSS
# VL: DIVMTQSQKFMSTSVGDRVSVTCKASQNVGTNVAWYQQKPGQSPKALIYSASYRYSGVPDRFTGSGSGTDFTLTISTVQSEDLAEYFCQQYNIYPSTFGGGTKLEIK
# B19: 2-G20-A (antibody, V domains shown)
# VH: EVQLQQSGPELVKPGASVKMSCKASGYTFPSYVLHWVKQKPGQGLEWIGYIYPYNDGTNYNEKFKGKATLTSDKSSSTAYMELSSLTSEDSAVYYCARGDYGDSAWFPYWGQGTLVTVSA
# VL: DIVLTQSPASLAVSLGQRATISCRASKSVSTSGYSYMHWYQQKPGQPPKLLIYLASNLKSGVPARFSGGGSGTDFTLNIHPVEEEDAATYYCQLSRELPWTFGGGTKLEIK
# B20: 2-H7-A (antibody, V domains shown)
# VH: QAYLQQSGAELVRPGASVKMSCKASGYTFTGYTMHWVKQTPRQGLEWIGAIYPENGDTSYNQKFKGKATLTVDKSSSTAYMQLSSLTSEDSAVYFCARDGYDVLYGMDYWGQGTSVTVSS
# VL: DIVLTQSPASLAVSLGQRATISCRASKSVSTSGYSYMHWYQQKPGQPPKLLIYLASNLESGVPARFSGSGSGTDFTLNIHPVEEEDAATYYCQHSRELPWTFGGGTKLDIK
# B21: 2-P2-A (antibody, V domains shown)
# VH: EVQLQQSGAELVRPGSSVKMSCKTSGYTFTSYGINWVKQRPGQGLEWIGYIYIGNGYTEYNEKFKGKATLTSDTSSSTAYMQLSSLTSEDSAIYFCARGGVDYWGQGTTLTVSS
# VL: DVLMTQTPLSLPVSLGDQASISCRSSQSIVHSNGNTYLEWYLQKPGQSPKLLIYKVSNRFSGVPDRFSGSGSGTDFTLKISRVEAEDLGVYYCFQGSHVPYTFGGGTKLEIK
# How the values were obtained:
# Assay in all cases: ELISA
# [1] = biological target: T1, SARS-CoV-2 Beta (B.1.351) variant prefusion stabilized spike trimer protein (UniProt P0DTC2 14-1213)
# [2] = biological target: SARS-CoV-2 B.1.1.529 spike trimer variant (SARS-CoV-2 B.1.1.529 (Omicron), UniProt P0DTC2 16-1213)
# [3] = biological target: T1, SARS-CoV-2 Beta (B.1.351) variant …; remark: listed apart in the source
# [4] = biological target: SARS-CoV-2 BA.2 spike trimer variant (SARS-CoV-2 Omicron BA.2, UniProt P0DTC2 16-1213)
binder,measurement,setting,value
B1,EC50,[1],0.47 nM
B2,EC50,[1],2.87 nM
same,EC50,[2],20.6 nM
B3,EC50,[1],0.27 nM
B4,EC50,[1],5.97 nM
B5,EC50,[1],0.23 nM
B6,IC50,[3],10.8 nM
B7,EC50,[2],0.36 nM
same,EC50,[4],0.36 nM
B8,IC50,[3],7.76 nM
B9,EC50,[2],64 nM
same,EC50,[4],20.6 nM
B10,EC50,[1],0.59 nM
B11,EC50,[1],0.56 nM
B12,IC50,[3],5.99 nM
B13,EC50,[1],5.29 nM
B14,EC50,[2],1.16 nM
same,EC50,[4],0.84 nM
B15,EC50,[1],1.47 nM
B16,EC50,[1],0.53 nM
B17,EC50,[1],1.53 nM
B18,EC50,[2],0.94 nM
same,EC50,[4],3.87 nM
B19,IC50,[3],18.6 nM
B20,IC50,[3],10.8 nM
B21,EC50,[2],0.58 nM
same,EC50,[4],0.5 nM

# — patent US20230115257A1 (published 2023)
